For experiment [1], the target named is T1, cynomolgus CD94 expressed on HEK293 cells (cynomolgus monkey, UniProt Q68VD4 1-179).
T1 construct: also called cyno-CD94; cynomolgus monkey CD94
T1 sequence: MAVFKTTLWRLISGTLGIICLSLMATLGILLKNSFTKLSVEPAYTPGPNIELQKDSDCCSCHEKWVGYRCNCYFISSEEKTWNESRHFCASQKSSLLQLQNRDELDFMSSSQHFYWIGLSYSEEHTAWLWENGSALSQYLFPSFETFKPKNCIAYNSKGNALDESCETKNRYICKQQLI
Description: flow cytometry, cynomolgus CD94-expressing HEK293 cells. The source says:
(§1) Anti-CD94 hybridoma supernatants were screened on cynomolgus CD94-expressing HEK293 cells by flow cytometry for cross-reactivity to cynomolgus CD94. HP-3D9 is a commercial anti-CD94 antibody that was used as a negative control. Mouse IgG1, IgG2a, IgG2b and IgG3 were used as negative controls. […] Commercially available anti-CD94 antibodies were used to test cynomolgus cross-reactivity. 18H3 was used as a positive control. The MFI of each antibody was normalized to the MFI of its respective isotype.
(§2) Cynomolgus CD94-expressing HEK293 cells were seeded in 96-well plates at a density of 100,000 cells per well, incubated with cell viability dye (Thermo Fisher) for 30 minutes on ice and protected from light. The cells were washed once with FACS buffer (PBS with 2% IgG low FBS). Hybridoma supernatants, anti-CD94 antibodies and isotype controls were incubated with cells for 30 minutes on ice and protected from light. […] After incubation, the cells received a final wash in FACS buffer before quantification on the Cytoflex (Beckman Coulter). All data acquisition and fluorescence compensation were performed using CytoFlex (Beckman Coulter, Atlanta, GA). […] CD94 expression was then quantified on this population. […]
In general terms: A flow cytometer gives signals particle by particle.

The target of experiment [2] is T2, human CD94 expressed on cells (human primary NK cells in PBMCs; HEK cells expressing human CD94) (human, UniProt Q13241 1-179).
T2 construct: whole, on cells; also called KLRD1; Natural killer cells antigen CD94
T2 sequence (looked up): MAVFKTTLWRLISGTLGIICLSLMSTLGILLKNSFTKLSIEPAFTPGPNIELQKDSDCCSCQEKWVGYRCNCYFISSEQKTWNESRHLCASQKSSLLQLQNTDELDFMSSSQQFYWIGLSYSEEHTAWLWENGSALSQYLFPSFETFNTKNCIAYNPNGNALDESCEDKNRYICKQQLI
As to the kind of experiment: flow cytometry titration on CD3-CD56+ NK cells in healthy donor PBMCs; 'Affinity on Human NK Cells'; the filing derives these affinities as EC50 of titration curves (the 2.6nM of 18H3 is labelled EC50 in FIG. 1). As to the method:
Healthy donor PBMCs were seeded in 96 well plates at a density of 100,000 cells per well, incubated with human Fc block (Biolegend) and cell viability dye (Thermo Fisher) for 30 minutes on ice and protected from light. The cells were washed once with FACS buffer (PBS with 2% IgG low FBS). anti-CD94 antibodies at concentrations of 100 nM to 0.046 nM, 1:3-fold dilutions, were incubated with cells for 30 minutes on ice and protected from light. The cells were then washed and incubated with goat IgG anti-mouse Fey specific AF647 secondary antibody or goat (Fab)2 fragment anti-human Fey specific AF647 secondary antibody (Jackson immuno research), anti-CD3 pacific blue-labelled and anti-CD56 FITC-labelled antibodies (Biolegend) for 30 minutes on ice and protected from light. After incubation, the cells received a final wash in FACS buffer before quantification on the Cytoflex (Beckman Coulter). All data acquisition and fluorescence compensation were performed using CytoFlex (Beckman Coulter, Atlanta, GA). Data analysis was performed using FlowJo software. NK cells were identified through gating on lymphocytes on the forward and side scatter, followed by doublet and dead cell exclusion, and gated on the CD3−CD56+ population. CD94 expression was then quantified on the CD3−CD56+NK cell population. […]
The affinity of the antibody clones was also assessed by flow cytometry analysis.

In experiment [3] the target is T2, human CD94 expressed on cells (human …). Description: HLA-E tetramer blocking assay, flow cytometry on CD3-CD56+ NK cells in healthy donor PBMCs; antibody at one saturating concentration, blocked ligand PE-labelled HLA-E tetramer; percent blocking = 100-((percent HLA-E positive with antibody)/(percent HLA-E positive with isotype)*100). As to the method:
Healthy donor PBMCs were incubated with anti-CD94 antibodies. PE labeled HLA-E tetramer was then incubated with the cell and antibody mixture, and detected using flow cytometry. For HP-3B1, 131412, 12K45, DX22, 1M4 and 1E4, 2.5 μl of HLA-E tetramer reagent was used, while 5 μl was used for 18H3 and HP-3D9. Saturating concentrations of each antibody was used in this assay. The percent blocking was calculated as 100−((percent HLA-E positive for anti-CD94 antibody)/(percent HLA-E positive for isotype)*100).
Healthy donor PBMCs were seeded in 96-well plates at a density of 100,000 cells per well, incubated with human Fc block (Biolegend) and cell viability dye (Thermo Fisher) for 30 minutes on ice and protected from light. The cells were washed once with FACS buffer (PBS with 2% IgG low FBS). anti-CD94 antibodies at EC80 concentrations were incubated with cells for 30 minutes on ice and protected from light. After incubation with the anti-CD94 antibodies, the cells were washed and incubated with HLA-E tetramer PE (Creative Biolabs), anti-CD3 pacific blue-labelled, and anti-CD56 FITC-labelled antibodies (Biolegend) for 30 minutes on ice and protected from light. The cells then received a final wash in FACS buffer before quantification on the Cytoflex (Beckman Coulter). All data acquisition and fluorescence compensation were performed using CytoFlex (Beckman Coulter, Atlanta, GA). Data analysis was performed using FlowJo software. NK cells were identified through gating on lymphocytes on the forward and side scatter, followed by doublet and dead cell exclusion, and gated on the CD3−CD56+ population. HLA-E expression was then quantified on the CD3−CD56+NK cell population. Percent blocking was calculated as 100−((percent HLA-E positive for anti-CD94 antibody)/(percent HLA-E positive for isotype)*100).

The target is the same in experiment [4]. Description: cell-based or functional assay.
Experiment [5] addresses T1, cynomolgus CD94 expressed on HEK293 …. As to the kind of experiment: flow cytometry, hybridoma supernatant on cynomolgus CD94-expressing HEK293 cells.
Description: as §1, §2

What is called EC50 is the concentration giving half of the maximal effect. A high value points to weaker potency.

B1: anti-CD94 antibody clone 1M4 (antibody, V domains shown)
VH: QLVESGGGLVQPGGSLRLACAASGFTFSNYAMNWVRQAPGKGLEWVSVISGSGDTTYCADSVKGRFTISRDNSKNTLHLQLNSLRAEDTAVYYCAKNCYGSGSYYNHFDYWGQGTLVTVSS
VL: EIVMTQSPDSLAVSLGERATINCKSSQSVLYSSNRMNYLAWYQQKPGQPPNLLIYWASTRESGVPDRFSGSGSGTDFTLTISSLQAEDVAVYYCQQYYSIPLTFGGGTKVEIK
Turning to B1, in experiment [1], the binding result is on record as “binds”. Also, the EC50 in experiment [2] came out at 7 nM. Moreover, the “HLA-E Blocking” value in experiment [3] turned out to be 0%. Moreover, the “percent decrease in MFI (antibody internalization assay), comparing 0.5 hours to 24 hours at 37° C.” value in experiment [4] was 32%.

B2: anti-CD94 antibody clone 1E4 (antibody, V domains shown)
VH: QVTLRESGPALVKPTQTLTLTCTFSGFSLSTSDLCVSWIRQPPGKALEWLALIDWNDDKYYSTSLQTRLTISKDTSKNQVVLTMTNMDPVDTATYYCARTIAAAGPYDAFDIWGQGTMVTVSS
VL: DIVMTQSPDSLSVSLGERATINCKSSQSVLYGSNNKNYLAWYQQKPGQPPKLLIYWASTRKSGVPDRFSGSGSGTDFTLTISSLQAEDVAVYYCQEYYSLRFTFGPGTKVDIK
notes: also called fucosylated 1E4
On to B2, for which the EC50 in experiment [2] worked out at 75 nM. The “HLA-E Blocking” value in experiment [3] came out at 0%. In experiment [4], the “percent decrease in MFI (antibody internalization assay), comparing 0.5 hours to 24 hours at 37° C.” value was 18%. Also, in experiment [5], the binding result was “binds”.

These data come from patent US20250197505A1 (DREN BIO, published 2025).
